Data as given in article PMC9596371 (Nature Chemical Biology, 2022).

Columns and labels:
[1] = molecular target: T1, SARS-CoV-1 spike protein (FL-GCN4-Avi-His, 2P, biotinylated trimer) (SARS-CoV (SARS-CoV-1), strain of …, UniProt P59594, stabilised, biotin on the Avi tag); assay: ELISA; details: both partners purified
[2] = molecular target: T1, SARS-CoV-1 spike protein …; assay: BLI; details: both partners purified

Binder | binding result [1] | binding result [2]
COV2-2449 IgG (antibody, V domains shown) VH: QVQLVESGGGVVQPGRSLRLSCATSGFTFSSFALHWVRQAPGKGLEWVTVISDDGNNKYYVDSVKGRFTISRDNSKNTLFLQMNSLRVEDTAIYYCARASYNSNWSIGEYFRDWGQGTLVTVSS VL: not shown | binds | 
COVA2-14 IgG (antibody, V domains shown) VH: QVQLVQSGAEVKKPGSSVKVSCKASGGTFSSYAIIWVRQAPGQGLEWMGGIIPIFGTANYAQKFQGRVTITTDESTSTAYMELSSLRSEDTAVYYCARVRYYDSSGYYEDYWGQGTLVTVSS VL: EIVLTQSPATLSLSPGERATLSCRASQSVSSYLAWYQQEPGQAPRLLIYDASNRATGIPARFSGSGSGTDFTLTISSLEPEDFAVYYCQQRSNWPPMYTFGQGTKVEIK | binds | 
COVA2-18 IgG (antibody, V domains shown) VH: EVQLVQSGAEVKKPGSSVKVSCKASGGTFSSYAISWVRQAPGQGLEWMGGIIPIFGTTNYAQKFQGRVTITTDESTSTAYMELSSLRSEDTAVYYCARVYSYDSSGYYLEYWGQGTRVTVSS VL: EIVLTQSPATLSLSPGERATLSCRASQSVSSYLAWYQQKPGQAPRLLIYDASNRATGIPARFSGSGSGTDFTLTISSLEPEDFAVYYCQQRSNWPPSITFGQGTRLEIK |  | binds
COV2-2143 IgG (antibody, V domains shown) VH: EVQLVESGGGLVQPGGSLRLSCAASGFTVSSNYMSWVRQAPGKGLEWVSVIYSAGSTYYADSVKGRFSISRDKSKNTLYLQMNSLRAEDTAVYYCAKEGGSGSLRYYYYGMDVWGQGTTVTVSS VL: not shown | binds | 
CV27 IgG (antibody, V domains shown) VH: QVQLVESGGGVVQPGRSLRLSCAASGFTFSSYAMHWVRQAPGKGLEWVALISYDGSNKYYADSVKGRFTISRDNSKNTLYLQMNSLRAEDTAVYYCARSFGGSYYYGMDVWGQGTTVTVSS VL: QSALTQPASVSGSPGQSITISCTGTSSDVGGYNYVSWYQQHPGKAPKLMIYDVSNRPSGVSNRFSGSKSGNTASLTISGLQAEDEADYYCSSYTSSSTPYVFGTGTKVTVL |  | binds
COV2-2147 IgG (antibody, V domains shown) VH: QVQLAESGGGVVQPGRSLRLSCAASGFTFSSYAMHWVRQAPGKGLEWVAVISYDGSNKYYADSVKGRFTISRDNSKNTLYLQMNSLRAEDTAVYYCARSTSGSYYYGMDVWGQGTTVTVSS VL: QSALTQPASVSGSPGQSITISCTGTSSDVGDYNYVSWYQQHPGKAPKLMIYDVSNRPSGVSNRFSGSKSGNTASLTISGLQAEDEAEYYCSSYTSSSTLLYVFGTGTKVTVL |  | binds
